# Test results published in publication PMC12561408, “AI‐Driven De Novo Design of Ultra Long‐Acting GLP‐1 Receptor Agonists” (Advanced Science, 2025).
# B1: Human GLP-1R protein (receptor)
# chain: RPQGATVSLWETVQKWREYRRQCQRSLTEDPPPATDLFCNRTFDEYACWPDGEPGSFVNVSCPWYLPWASSVPQGHVYRFCTAEGLWLQKDNSSLPWRDLSECEESKRGERSSPEE
# How the values were obtained:
# Assay in all cases: SPR
# Details in all cases: both partners purified
# [1] = biological target: T1, GST-peptide fusion protein D41
# T1 construct: source: E. coli BL21 (DE3), GST-peptide fusion; not shown: GST, N-terminal, kept
# [2] = biological target: T2, GST-peptide fusion protein D44
# T2 construct: source: E. coli BL21 (DE3), GST-peptide fusion; not shown: GST, N-terminal, kept
# [3] = biological target: T3, GST-peptide fusion protein D13
# T3 construct: source: E. coli BL21 (DE3), GST-peptide fusion; not shown: GST, N-terminal, kept
binder,measurement,setting,value
B1,Kd,[1],5.19 µM
same,Kd,[2],6.78 µM
same,Kd,[3],8.58 µM
